According to patent US20250277199, “NOVEL CRISPR-CAS NUCLEASES FROM METAGENOMES” (Brain Biotech AG, published 2025):

Biological target: T1, BMC12 (uncultured bacterium (metagenome))
T1 chain: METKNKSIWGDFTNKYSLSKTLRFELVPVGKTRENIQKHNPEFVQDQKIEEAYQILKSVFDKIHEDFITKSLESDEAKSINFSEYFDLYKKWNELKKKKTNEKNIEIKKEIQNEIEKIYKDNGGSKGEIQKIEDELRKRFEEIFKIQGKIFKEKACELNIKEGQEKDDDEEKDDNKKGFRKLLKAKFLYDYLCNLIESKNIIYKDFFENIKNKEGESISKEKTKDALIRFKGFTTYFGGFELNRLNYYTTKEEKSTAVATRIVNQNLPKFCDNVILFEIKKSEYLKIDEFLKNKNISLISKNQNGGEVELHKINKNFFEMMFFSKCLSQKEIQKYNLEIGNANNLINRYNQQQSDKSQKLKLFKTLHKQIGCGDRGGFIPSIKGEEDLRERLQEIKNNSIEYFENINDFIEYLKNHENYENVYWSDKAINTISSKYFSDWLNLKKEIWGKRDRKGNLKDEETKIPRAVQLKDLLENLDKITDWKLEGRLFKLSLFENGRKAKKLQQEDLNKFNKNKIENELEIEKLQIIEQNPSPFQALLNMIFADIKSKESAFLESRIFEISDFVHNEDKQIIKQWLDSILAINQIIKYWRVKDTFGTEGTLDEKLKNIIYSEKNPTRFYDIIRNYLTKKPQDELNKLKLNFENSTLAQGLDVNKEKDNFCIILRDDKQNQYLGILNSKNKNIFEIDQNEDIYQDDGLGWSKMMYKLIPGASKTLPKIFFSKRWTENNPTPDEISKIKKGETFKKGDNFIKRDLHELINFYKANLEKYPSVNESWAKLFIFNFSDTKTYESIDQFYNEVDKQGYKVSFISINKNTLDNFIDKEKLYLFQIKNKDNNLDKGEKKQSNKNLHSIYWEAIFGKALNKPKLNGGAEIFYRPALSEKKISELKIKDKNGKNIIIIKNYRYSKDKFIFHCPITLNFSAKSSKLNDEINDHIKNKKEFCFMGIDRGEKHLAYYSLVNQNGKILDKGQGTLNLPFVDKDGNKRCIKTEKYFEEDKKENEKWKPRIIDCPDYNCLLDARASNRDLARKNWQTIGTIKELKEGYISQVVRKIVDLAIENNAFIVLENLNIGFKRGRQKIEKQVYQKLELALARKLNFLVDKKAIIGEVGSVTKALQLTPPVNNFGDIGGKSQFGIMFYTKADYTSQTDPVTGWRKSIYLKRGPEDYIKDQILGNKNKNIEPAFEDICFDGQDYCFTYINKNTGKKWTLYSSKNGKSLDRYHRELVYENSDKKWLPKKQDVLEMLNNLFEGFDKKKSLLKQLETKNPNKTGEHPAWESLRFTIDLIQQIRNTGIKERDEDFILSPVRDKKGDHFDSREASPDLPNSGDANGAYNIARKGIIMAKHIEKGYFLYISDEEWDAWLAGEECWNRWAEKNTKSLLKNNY
Experiment: cell_activity; PAM not stated; E. coli depletion, 30 C
Procedure, shortened: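 E. coli carrying arabinose-induced (0.2%) BMC nuclease, grown at 30° C., made electrocompetent and electroporated with 50-100 ng plasmid carrying gRNA against malQ. Transformants plated on selective M9-glucose agar with kanamycin/ampicillin (± nourseothricin), and growth scored after 48 h at 30° C.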

B1: malQ gRNA (BMC stem-loop + 24 nt spacer) ; malQ protospacer (ssRNA ; dsDNA)
RNA: GAUUUCUACUAUUGUAGAUGUGGCGGUACGUUGAUGCAUCGCG
DNA 1: GTGGCGGTACGTTGATGCATCGCG
DNA 2: CGCGATGCATCAACGTACCGCCAC
In the case of B1, the activity is reported as > 99.9 % colony reduction.
